# Reference: the supplement of paper PMC9233669
# Variants at the floor of the assay were thinned out.
# Key:
# biotinyl-Ile-oxazolone = assay: self-aminoacylation, catalytic enhancement (BIO) (fold over background); higher = more active; k-Seq, kA / k0A0; sequences stand for … in GGGAAUGGAUCCACAUCUACGAAUUC…UUCACUGCAGACUUGACGAAGCUG
# How it was run: (§1)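 Working in 50 μL HEPES/NaCl/KCl/MgCl2/CaCl2 buffer with 5% acetonitrile at pH 6.9–7.0, mutagenized RNA pools (0.43 μM; 21-nt variable region) were reacted with 2–1250 μM of each biotinyl-aminoacyl-oxazolone for 90 minutes at room temperature. Streptavidin capture followed, with quantification by triplicate qPCR and Illumina sequencing. Catalytic enhancement is reported as median kA over the uncatalyzed rate, the low-activity peak of a bimodal Gaussian fit to the data.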
# biotinyl-Leu-oxazolone = assay: self-aminoacylation, catalytic enhancement (BLO) (fold over background); higher = more active; k-Seq, kA / k0A0; sequences stand for … in GGGAAUGGAUCCACAUCUACGAAUUC…UUCACUGCAGACUUGACGAAGCUG
# How it was run: as §1
# biotinyl-Trp-oxazolone = assay: self-aminoacylation, catalytic enhancement (BWO) (fold over background); higher = more active; k-Seq, kA / k0A0; sequences stand for … in GGGAAUGGAUCCACAUCUACGAAUUC…UUCACUGCAGACUUGACGAAGCUG
# How it was run: as §1
# biotinyl-Met-oxazolone = assay: self-aminoacylation, catalytic enhancement (BMO) (fold over background); higher = more active; k-Seq, kA / k0A0; sequences stand for … in GGGAAUGGAUCCACAUCUACGAAUUC…UUCACUGCAGACUUGACGAAGCUG
# How it was run: as §1
# biotinyl-Val-oxazolone = assay: self-aminoacylation, catalytic enhancement (BVO) (fold over background); higher = more active; k-Seq, kA / k0A0; sequences stand for … in GGGAAUGGAUCCACAUCUACGAAUUC…UUCACUGCAGACUUGACGAAGCUG
# How it was run: as §1
# biotinyl-Phe-oxazolone = assay: self-aminoacylation, catalytic enhancement (BFO) (fold over background); higher = more active; k-Seq, kA / k0A0; sequences stand for … in GGGAAUGGAUCCACAUCUACGAAUUC…UUCACUGCAGACUUGACGAAGCUG
# How it was run: as §1
Sequence,self-aminoacylation (biotinyl-Ile-oxazolone),self-aminoacylation (biotinyl-Leu-oxazolone),self-aminoacylation (biotinyl-Trp-oxazolone),self-aminoacylation (biotinyl-Met-oxazolone),self-aminoacylation (biotinyl-Val-oxazolone),self-aminoacylation (biotinyl-Phe-oxazolone)
AGGUUUGCUAGUAGUCGCAAG [Fam3.1 aminoacylation ribozyme variant],0.918,0.945,0.88,0.787,0.894,1.49
CCACACUUCACGCAAUCAGUC [Fam1B.1 aminoacylation ribozyme variant],0.823,0.673,0.962,0.662,0.731,0.704
UUACUUCAAACAACCGGUCUG [Fam1A.1 aminoacylation ribozyme variant],1.36,1.22,1.51,1.03,1.15,1.38
AUUACCCUGGUCAUGAAGUGA [Fam2.1 aminoacylation ribozyme variant],4.14,7.74,10.1,8.83,4.08,44.8
AUUCACCUAGGUCCUCGAGUG [Fam2.2 aminoacylation ribozyme variant],1.26,2.12,1.18,1.36,1.38,3.5
AAGUUAGCUAAUAGUCGCCAG [Fam3.1 aminoacylation ribozyme variant],1.91,1.67,3.82,2.09,1.33,1.48
CCACCCUUUAAGCAAUCGGUC [Fam1B.1 aminoacylation ribozyme variant],1.16,0.983,0.888,0.892,1.21,1.34
AUUCACAUAGGUCAGCGGGUG [Fam2.2 aminoacylation ribozyme variant],3.26,4.15,5.03,3.83,2.91,22.6
CCAGACUUCAGGCAAUCGGUC [Fam1B.1 aminoacylation ribozyme variant],1.45,1.57,1.83,1.36,1.64,1.79
AUUAACCGGGUCAUCGAGUGA [Fam2.1 aminoacylation ribozyme variant],3.38,7.07,7.04,6.03,3.29,36
AGUACCCUGGUCAUCGAGGGA [Fam2.1 aminoacylation ribozyme variant],1.43,2.21,2.91,1.22,1.47,1.82
AAGUUUGCUAAUUGUCGCAAG [Fam3.1 aminoacylation ribozyme variant],0.834,0.764,1.06,0.788,0.846,1.37
CCACGCGUCAAGCAAUCGGUC [Fam1B.1 aminoacylation ribozyme variant],0.827,0.71,0.802,0.841,1.2,0.748
AAGUUUGAUAAUAGUCGCAAA [Fam3.1 aminoacylation ribozyme variant],1.18,0.997,1.04,1.08,0.975,1.22
ACGUUUGCUCAUAGUCGCAAG [Fam3.1 aminoacylation ribozyme variant],1.89,2.49,3.57,1.88,1.91,2.58
AUUCGACUAGGUCAUCGGGUG [Fam2.2 aminoacylation ribozyme variant],4.46,8.63,6.57,7.05,3.95,47.3
CCACUUCCAACAAUCGGUCUG [Fam1A.1 aminoacylation ribozyme variant],0.991,1.15,1.6,1.11,1.11,1.13
GUACUUCAAACCAUCGGUCUG [Fam1A.1 aminoacylation ribozyme variant],1.22,0.918,1.31,1.13,1.18,2.13
AAAUUUGCUAAUAGUCGCGAG [Fam3.1 aminoacylation ribozyme variant],2.12,2.53,2.48,2.44,1.76,1.34
UAGUUUGGUAAUAGUCGCAAG [Fam3.1 aminoacylation ribozyme variant],1.73,1.81,1.96,1.74,1.57,2.29
CUACUUCAAACAAUAGGUCUG [Fam1A.1 aminoacylation ribozyme variant],0.813,0.681,0.617,0.696,0.817,1.11
AUUCACCUAGGCCAACGGGUG [Fam2.2 aminoacylation ribozyme variant],2.23,4.01,3.02,2.61,2.04,14.5
AUUCACCGAGGUCAUCGGGGG [Fam2.2 aminoacylation ribozyme variant],2.59,2.65,3.16,2.95,2.71,7.01
AUUACCAUGGUCAUCGAGCGA [Fam2.1 aminoacylation ribozyme variant],1.73,1.98,1.64,2.24,1.79,1.04
CUUCUUCACACAAUCGGUCUG [Fam1A.1 aminoacylation ribozyme variant],0.714,0.775,0.81,0.749,0.782,0.889
CUACUUCAAACUACCGGUCUG [Fam1A.1 aminoacylation ribozyme variant],1.1,0.868,0.846,0.809,0.832,0.75

Sequence,self-aminoacylation (biotinyl-Ile-oxazolone),self-aminoacylation (biotinyl-Leu-oxazolone),self-aminoacylation (biotinyl-Trp-oxazolone),self-aminoacylation (biotinyl-Met-oxazolone),self-aminoacylation (biotinyl-Val-oxazolone),self-aminoacylation (biotinyl-Phe-oxazolone)
CCCCACUUCAAGCAAUCGGGC [Fam1B.1 aminoacylation ribozyme variant],2.37,2.43,5.69,3.15,2.92,4.2
CCACACUUCUAGCACUCGGUC [Fam1B.1 aminoacylation ribozyme variant],0.819,0.702,0.913,0.748,0.783,0.649
ACGUUUCCUAAUAGUCGCAAG [Fam3.1 aminoacylation ribozyme variant],1.61,1.08,1.3,1.33,1.21,1.35
AUUCACCUAGGUCAUCGCGGG [Fam2.2 aminoacylation ribozyme variant],2.97,4.05,2.25,3.25,2.47,10.7
CAACACUUCAGGCAAUCGGUC [Fam1B.1 aminoacylation ribozyme variant],1.43,1.34,1.3,1.12,1.19,1.27
AUUCGCCUAGGUCAUCGGGUG [Fam2.2 aminoacylation ribozyme variant],26.2,63.8,37.3,45.8,23.1,364
AUUCACCUAGGUUAACGGGUG [Fam2.2 aminoacylation ribozyme variant],2,3.22,2.83,2.55,2.1,24.8
CCUCACUUCAAGCAAUCGGUU [Fam1B.1 aminoacylation ribozyme variant],1.34,1.7,6.83,1.45,1.61,9.36
CUACUUCAGACAAUCGGUCUC [Fam1A.1 aminoacylation ribozyme variant],0.936,0.895,0.825,0.857,0.977,1.09
CCUCACAUCAAGCAAUCGGUC [Fam1B.1 aminoacylation ribozyme variant],0.87,0.726,1.05,0.749,0.973,1.77
AAGUUUGCUAAUAGUAGCGAG [Fam3.1 aminoacylation ribozyme variant],1.21,0.962,1.14,0.995,1,1.65
AUUCACCUACGUCAUCGUGUG [Fam2.2 aminoacylation ribozyme variant],0.632,0.86,0.425,0.602,0.818,0.74
CUACUUCAAACAUUCGGUUUG [Fam1A.1 aminoacylation ribozyme variant],1.17,0.962,1.43,1.05,1.2,0.613
CUACUUCAAAAAUUCGGUCUG [Fam1A.1 aminoacylation ribozyme variant],1.44,1.65,1.12,1.37,1.45,3.5
AAGUUUGCUAAUAGUCUCCAG [Fam3.1 aminoacylation ribozyme variant],1.1,0.909,1.02,0.855,0.947,1.59
UUUCACCUGGGUCAUCGGGUG [Fam2.2 aminoacylation ribozyme variant],3.99,4.95,6.75,5.12,5.26,24.2
CUCACCCUGGUCAUCGAGUGA [Fam2.1 aminoacylation ribozyme variant],3.71,7.38,6.74,5.33,4.49,27.1
AUUCCCCUGGUCAUCGAGGGA [Fam2.1 aminoacylation ribozyme variant],1.42,1.56,1.99,1.29,1.55,1.62
AUUACCCUGUUCAUCGAGUGA [Fam2.1 aminoacylation ribozyme variant],2.97,5.44,7.34,5.57,3.22,16.6
AAGUAUGCUAAUAGUCGCAAU [Fam3.1 aminoacylation ribozyme variant],1.9,1.64,1.75,2.13,1.52,1.96
CCACACAUCAAGCAAGCGGUC [Fam1B.1 aminoacylation ribozyme variant],0.968,0.901,0.988,0.779,1.03,0.546
GUCCUUCAAACAAUCGGUCUG [Fam1A.1 aminoacylation ribozyme variant],1.31,1.49,11,1.35,1.52,11.9
AAUACCCUGGUCAUCGAGGGA [Fam2.1 aminoacylation ribozyme variant],1.51,1.58,1.85,1.18,1.94,1.13
GUUCACCCAGGUCAUCGGGUG [Fam2.2 aminoacylation ribozyme variant],3.12,5.02,3.77,3.77,3.64,29.1
AUUCCCUUGGUCAUCGAGUGA [Fam2.1 aminoacylation ribozyme variant],6.22,12.3,14.7,11.8,6.58,71.8
